This test concerns the target T1, human PD-1-His (human, UniProt Q15116 25-167, limits assumed).
T1 construct: Antigen of the Octet assays; not shown: His tag
Put plainly: Octet.

Where a chain is given by its changes, count along the chain named. Names may count otherwise.

T1 sequence (Q15116 25-167 limits assumed): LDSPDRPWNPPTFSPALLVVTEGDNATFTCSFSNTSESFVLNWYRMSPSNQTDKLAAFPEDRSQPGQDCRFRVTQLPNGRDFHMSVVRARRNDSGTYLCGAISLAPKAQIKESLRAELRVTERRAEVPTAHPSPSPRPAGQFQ

B1: H1.37_L1 (antibody, human IgG1, kappa, V domains shown)
VH: EVQLVESGGGLVQPGGSLRLSCAASGFTFSSFGMHWVRQAPGKGLEWVSYIASGSSIIYYADSVKGRFTISRDNAKNSLYLQMNSLRAEDTAVYYCARGGRLVWSPDYWGQGTLVTVSS
VL: DIVMTQSPDSLAVSLGERATINCKSSQSLLNSGNQKNYLTWYQQKPGQPPKLLIYWASTRESGVPDRFTGSGSGTDFTLTISSLQAEDVAVYYCQNDYSYPFTFGSGTKLEIKR
notes: also called VH-S54A; Kabat 52A; copies: 2 + 2
Molecule B1 returned a dissociation constant (Kd) of 56 nM, a koff of 0.00763 s⁻¹ and an association rate constant (kon) of 136000 M⁻¹ s⁻¹.

B2: H1.57_L1 (antibody, human IgG1, kappa, V domains shown)
VH: B1 VH with A52S, G54Q
VL: B1 VL
notes: also called VH-G56Q; Kabat 53Q; copies: 2 + 2
On to B2, for which the Kd stood at 30.9 nM, the koff was determined as 0.00464 s⁻¹ and the kon is 150000 M⁻¹ s⁻¹.

B3: H1.65_L1 (antibody, human IgG1, kappa, V domains shown)
VH: B1 VH with A52S, S55G
VL: B1 VL
notes: also called VH-S59G; Kabat 54; copies: 2 + 2
Turning to B3, binding was put at a Kd of 61 nM, the koff is 0.00827 s⁻¹ and the kon came out at 136000 M⁻¹ s⁻¹.

B4: H1.68_L1 (antibody, human IgG1, kappa, V domains shown)
VH: B1 VH with A52S, S55K
VL: B1 VL
notes: also called VH-S59K; Kabat 54; copies: 2 + 2
B4 showed a Kd of 74 nM, a koff of 0.00808 s⁻¹ and a kon of 109000 M⁻¹ s⁻¹.

B5: H1.38_L1 (antibody, human IgG1, kappa, V domains shown)
VH: B1 VH with A52Q
VL: B1 VL
notes: also called VH-S54Q; Kabat 52Q; copies: 2 + 2
As for B5, the Kd is 57.5 nM, the koff was 0.00776 s⁻¹ and the kon amounted to 135000 M⁻¹ s⁻¹.

B6: H1.51_L1 (antibody, human IgG1, kappa, V domains shown)
VH: B1 VH with A52S, S53K
VL: B1 VL
notes: also called VH-S55K; Kabat 52aK
Turning to B6, the Kd came to 54.9 nM, the off-rate constant (koff) came out at 0.00567 s⁻¹ and the on-rate (kon) is 103000 M⁻¹ s⁻¹.

B7: H1.70_L1 (antibody, human IgG1, kappa, V domains shown)
VH: B1 VH with A52S, S55E
VL: B1 VL
notes: also called VH-S59E; Kabat 54; copies: 2 + 2
Turning to B7, the Kd stood at 48 nM, the koff was determined as 0.00674 s⁻¹ and the on-rate constant (kon) is 140000 M⁻¹ s⁻¹.

B8: H1.50_L1 (antibody, human IgG1, kappa, V domains shown)
VH: B1 VH with A52S, S53H
VL: B1 VL
notes: also called VH-S55H; Kabat 52aH; copies: 2 + 2
For B8, the equilibrium dissociation constant (Kd) was determined as 24.2 nM, the koff is 0.00287 s⁻¹ and the kon turned out to be 119000 M⁻¹ s⁻¹.

B9: H1.59_L1 (antibody, human IgG1, kappa, V domains shown)
VH: B1 VH with A52S, G54K
VL: B1 VL
notes: also called VH-G56K; Kabat 53; copies: 2 + 2
Molecule B9 gave a Kd of 37.6 nM, a koff of 0.00494 s⁻¹ and a kon of 131000 M⁻¹ s⁻¹.

B10: H1.43_L1 (antibody, human IgG1, kappa, V domains shown)
VH: B1 VH with A52Y
VL: B1 VL
notes: also called VH-S54Y; Kabat 52Y
With B10, binding was put at a Kd of 665 nM, the koff is 0.148 s⁻¹ and the kon turned out to be 223000 M⁻¹ s⁻¹.

B11: H1.53_L1 (antibody, human IgG1, kappa, V domains shown)
VH: B1 VH with A52S, S53E
VL: B1 VL
notes: also called VH-S55E; Kabat 52aE
In the case of B11, the Kd was 96 nM, the koff was determined as 0.0283 s⁻¹ and the kon came to 295000 M⁻¹ s⁻¹.

B12: H1.45_L1 (antibody, human IgG1, kappa, V domains shown)
VH: B1 VH with A52S, S53T
VL: B1 VL
notes: also called VH-S55T; Kabat 52aT
On to B12, for which the Kd was found to be 74.5 nM, the koff turned out to be 0.0091 s⁻¹ and the association rate constant (kon) was 122000 M⁻¹ s⁻¹.

B13: H1.41_L1 (antibody, human IgG1, kappa, V domains shown)
VH: B1 VH with A52H
VL: B1 VL
notes: also called VH-S54H; Kabat 52H; copies: 2 + 2
B13 yielded a Kd of 74.6 nM, a koff of 0.0104 s⁻¹ and a kon of 140000 M⁻¹ s⁻¹.

B14: H1.63_L1 (antibody, human IgG1, kappa, V domains shown)
VH: B1 VH with A52S, S55A
VL: B1 VL
notes: also called VH-S59A; Kabat 54; copies: 2 + 2
The molecule B14 had a dissociation constant (Kd) of 42.4 nM, a koff of 0.00619 s⁻¹ and a kon of 146000 M⁻¹ s⁻¹.

B15: H1.67_L1 (antibody, human IgG1, kappa, V domains shown)
VH: B1 VH with A52S, S55H
VL: B1 VL
notes: also called VH-S59H; Kabat 54; copies: 2 + 2
B15: the Kd is 49.2 nM, the koff was 0.00692 s⁻¹ and the kon is 141000 M⁻¹ s⁻¹.

B16: H1.60_L1 (antibody, human IgG1, kappa, V domains shown)
VH: B1 VH with A52S, G54L
VL: B1 VL
notes: also called VH-G56L; Kabat 53; copies: 2 + 2
With B16, the Kd stood at 35.9 nM, the koff is 0.00458 s⁻¹ and the kon is 128000 M⁻¹ s⁻¹.

B17: H1.39_L1 (antibody, human IgG1, kappa, V domains shown)
VH: B1 VH with A52G
VL: B1 VL
notes: also called VH-S54G; Kabat 52G; copies: 2 + 2
B17 had a Kd of 115 nM, a koff of 0.0178 s⁻¹ and a kon of 154000 M⁻¹ s⁻¹.

B18: H1.42_L1 (antibody, human IgG1, kappa, V domains shown)
VH: B1 VH with A52K
VL: B1 VL
notes: also called VH-S54K; Kabat 52K
As to B18, the Kd was determined as 500 nM, the koff worked out at 0.0265 s⁻¹ and the kon came to 53000 M⁻¹ s⁻¹.

B19: H1.69_L1 (antibody, human IgG1, kappa, V domains shown)
VH: B1 VH with A52S, S55Y
VL: B1 VL
notes: also called VH-S59Y; Kabat 54; copies: 2 + 2
B19 gave a Kd of 59.6 nM, a koff of 0.00818 s⁻¹ and a kon of 137000 M⁻¹ s⁻¹.

B20: H1.40_L1 (antibody, human IgG1, kappa, V domains shown)
VH: B1 VH with A52V
VL: B1 VL
notes: also called VH-S54V; Kabat 52V; copies: 2 + 2
For the molecule B20, the affinity, expressed as Kd, was 231 nM; the koff was determined as 0.0293 s⁻¹; the kon amounted to 127000 M⁻¹ s⁻¹.

B21: H1.58_L1 (antibody, human IgG1, kappa, V domains shown)
VH: B1 VH with A52S, G54H
VL: B1 VL
notes: also called VH-G56H; Kabat 53; copies: 2 + 2
The molecule B21 showed a Kd of 43.9 nM, an off-rate (koff) of 0.00544 s⁻¹ and a kon of 124000 M⁻¹ s⁻¹.

B22: H1.66_L1 (antibody, human IgG1, kappa, V domains shown)
VH: B1 VH with A52S, S55V
VL: B1 VL
notes: also called VH-S59V; Kabat 54; copies: 2 + 2
On to B22, for which binding was put at a Kd of 112 nM, the koff stood at 0.0129 s⁻¹ and the kon was determined as 115000 M⁻¹ s⁻¹.

B23: H1.46_L1 (antibody, human IgG1, kappa, V domains shown)
VH: B1 VH with A52S, S53A
VL: B1 VL
notes: also called VH-S55A; Kabat 52aA
The molecule B23 returned a dissociation constant Kd of 41.9 nM, a koff of 0.00529 s⁻¹ and a kon of 126000 M⁻¹ s⁻¹.

B24: H1.55_L1 (antibody, human IgG1, kappa, V domains shown)
VH: B1 VH with A52S, G54S
VL: B1 VL
notes: also called VH-G56S; Kabat 53S; copies: 2 + 2
As to B24, the Kd stood at 33.9 nM, the koff came out at 0.00457 s⁻¹ and the kon turned out to be 135000 M⁻¹ s⁻¹.

B25: H1.48_L1 (antibody, human IgG1, kappa, V domains shown)
VH: B1 VH with A52S, S53G
VL: B1 VL
notes: also called VH-S55G; Kabat 52aG
B25: the Kd is 20.1 nM, the koff was determined as 0.00293 s⁻¹ and the on-rate (kon) amounted to 146000 M⁻¹ s⁻¹.

B26: H1.47_L1 (antibody, human IgG1, kappa, V domains shown)
VH: B1 VH with A52S, S53Q
VL: B1 VL
notes: also called VH-S55Q; Kabat 52aQ
Take B26: the affinity, expressed as Kd, was 117 nM; the koff turned out to be 0.0159 s⁻¹; the kon was 136000 M⁻¹ s⁻¹.

B27: H1.52_L1 (antibody, human IgG1, kappa, V domains shown)
VH: B1 VH with A52S, S53Y
VL: B1 VL
notes: also called VH-S55Y; Kabat 52aY
On to B27, for which binding was put at a Kd of 33.1 nM, the koff worked out at 0.00423 s⁻¹ and the kon is 128000 M⁻¹ s⁻¹.

B28: H1.61_L1 (antibody, human IgG1, kappa, V domains shown)
VH: B1 VH with A52S, G54Y
VL: B1 VL
notes: also called VH-G56Y; Kabat 53; copies: 2 + 2
Regarding B28, the Kd turned out to be 41.5 nM, the koff worked out at 0.00574 s⁻¹ and the kon amounted to 138000 M⁻¹ s⁻¹.

B29: H1.64_L1 (antibody, human IgG1, kappa, V domains shown)
VH: B1 VH with A52S, S55Q
VL: B1 VL
notes: also called VH-S59Q; Kabat 54; copies: 2 + 2
In the case of B29, the Kd is 59.1 nM, the koff was determined as 0.00783 s⁻¹ and the on-rate constant (kon) came out at 132000 M⁻¹ s⁻¹.

B30: H1.54_L1 (antibody, human IgG1, kappa, V domains shown)
VH: B1 VH with A52S, G54A
VL: B1 VL
notes: also called VH-G56A; Kabat 53A; copies: 2 + 2
As for B30, the Kd was found to be 34.5 nM, the koff worked out at 0.00432 s⁻¹ and the on-rate constant (kon) was determined as 125000 M⁻¹ s⁻¹.

B31: H1.44_L1 (antibody, human IgG1, kappa, V domains shown)
VH: B1 VH with A52E
VL: B1 VL
notes: also called VH-S54E; Kabat 52E
Turning to B31, the Kd came to 183 nM, the koff is 0.0225 s⁻¹ and the kon was determined as 123000 M⁻¹ s⁻¹.

B32: H1.49_L1 (antibody, human IgG1, kappa, V domains shown)
VH: B1 VH with A52S, S53V
VL: B1 VL
notes: also called VH-S55V; Kabat 52aV; copies: 2 + 2
Turning to B32, the affinity, expressed as Kd, was 92.8 nM; the koff was 0.0136 s⁻¹; the kon was determined as 147000 M⁻¹ s⁻¹.

B33: H1.56_L1 (antibody, human IgG1, kappa, V domains shown)
VH: B1 VH with A52S, G54T
VL: B1 VL
notes: also called VH-G56T; Kabat 53T; copies: 2 + 2
B33 displayed a Kd of 31.5 nM, a dissociation rate constant (koff) of 0.00407 s⁻¹ and a kon of 129000 M⁻¹ s⁻¹.

B34: H1.62_L1 (antibody, human IgG1, kappa, V domains shown)
VH: B1 VH with A52S, S55T
VL: B1 VL
notes: also called VH-S59T; Kabat 54; copies: 2 + 2
For the molecule B34, the affinity, expressed as Kd, was 59.9 nM; the koff amounted to 0.00774 s⁻¹; the association rate constant (kon) was found to be 129000 M⁻¹ s⁻¹.

The record behind these values is patent publication US20240294593A1 (Genentech, published 2024).
